Source: patent US20220193237A1 (Bristol-Myers Squibb, published 2022)
Like-named read-outs stand apart in the source and are kept apart here.

B1: ipi.71 (full-length IgG) (antibody, V domains shown)
VH: QVQLVESGGGVVQPGRSLRLSCAASGFTFSHYTMHWVRQAPGKGLEWVTFISYDGHNKYYADSVKGRFTISRDNSKNTLYLQMNSLRAEDTAIYYCARTGWLGPFDYWGQGTLVTVSS
VL: not shown
notes: Full-length bivalent IgG (human IgG1); heavy chain entry is without the C-terminal lysine
B2: ipi.90 Fab (Fab, V domains shown)
VH: QVQLVESGGGVVQPGRSLRLSCAASGFTFSHYTMHWVRQAPGKGLEWVTFISYDGNNKYYADSVKGRFTISRDNSKNTLYLQMNSLRAEDTAIYYCARHGWLGPFDYWGQGTLVTVSS
VL: EIVLTQSPGTLSLSPGERATLSCRASQEVGDSELAWYQQKPGQAPRLLIYGAFSRATGIPDRFSGSGSGTDFTLTISRLEPEDFAVYYCQQYGSSPWTFGQGTKVEIKR
notes: Tested as monovalent Fab
B3: ipi.100 Fab (Fab, V domains shown)
VH: QVQLVESGGGVVQPGRSLRLSCAASGFTFSHYTMHWVRQAPGKGLEWVTFISYDGNNKYYADSVKGRFTISRDNSKNTLYLQMNSLRAEDTAIYYCARTGWLGPFDYWGQGTLVTVSS
VL: not shown
notes: Tested as monovalent Fab
B4: ipi.106 Fab (Fab, V domains shown)
VH: QVQLVESGGGVVQPGRSLRLSCAASGFTFSHYTMHWVRQAPGKGLEWVTFISYDGHNKYYADSVKGRFTISRDNSKNTLYLQMNSLRAEDTAIYYCARHGWLGPFDYWGQGTLVTVSS
VL: EIVLTQSPGTLSLSPGERATLSCRASQEVGESELAWYQQKPGQAPRLLIYGAFSRATGIPDRFSGSGSGTDFTLTISRLEPEDFAVYYCQQYGSSPWTFGQGTKVEIKR
notes: Tested as monovalent Fab
B5: ipi.3 Fab (Fab, V domains shown)
VH: QVQLVESGGGVVQPGRSLRLSCAASGFTFSSYTMHWVRQAPGKGLEWVTFISYDGNNKYYADSVKGRFTISRDNSKNTLYLQMNSLRAEDTAIYYCARHGWLGPFDYWGQGTLVTVSS
VL: not shown
notes: Tested as monovalent Fab; also called HCDR3 T95H (Kabat)
B6: ipi.64 Fab (Fab, V domains shown)
VH: QVQLVESGGGVVQPGRSLRLSCAASGFTFSHYTMHWVRQAPGKGLEWVTFISYDGNNKYYADSVKGRFTISRDNSKNTLYLQMNSLRAEDTAIYYCARTGWLGPFDYWGQGTLVTVSS
VL: not shown
notes: Tested as monovalent Fab; also called IPI.64 mutant fab; LCDR1 S28E/S31D and HCDR1 S31H

Columns and labels:
[1] = molecular target: T1, human CTLA-4 on 58 α-β-CTLA-4/CD3 ζ cells (human; mouse (mCD3ζ)); assay: flow cytometry (GMFI), full-length IgG on 58 α-β-CTLA-4/CD3 ζ cells, pH 7.2
T1 construct: also called 58αβ-hCTLA4/mCD3ζ cells; 58αβ-CTLA4/mCD3ζ cells

[2] = molecular target: T1, human CTLA-4 on 58 α-β-CTLA-4/CD3 ζ …; assay: flow cytometry (GMFI), full-length IgG on 58 α-β-CTLA-4/CD3 ζ cells, pH 6.6
[3] = molecular target: T1, human CTLA-4 on 58 α-β-CTLA-4/CD3 ζ …; assay: flow cytometry (GMFI), full-length IgG on 58 α-β-CTLA-4/CD3 ζ cells, pH 6.3
monomeric human CTLA-4 [4] = molecular target: T2, monomeric human CTLA-4 (human, UniProt P16410 36-161, limits assumed); assay: SPR, captured Fab, pH 6.0 vs 7.4
T2 construct: Soluble monomeric analyte in SPR; also called huCTLA-4
T2 sequence: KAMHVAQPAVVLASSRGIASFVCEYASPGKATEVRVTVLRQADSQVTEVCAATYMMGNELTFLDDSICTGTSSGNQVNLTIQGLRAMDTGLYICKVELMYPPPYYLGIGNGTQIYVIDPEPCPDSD

monomeric human CTLA-4 [5] = molecular target: T2, monomeric human CTLA-4; assay: SPR, captured Fab, pH 7.4; pH 7.4
Procedure: (§1) Unless otherwise indicated, experiments were performed with a BIACORE® SPR surface plasmon resonance spectrometer (Biacore AB, Uppsala, Sweden). Antibodies were tested as monovalent Fab fragments to simplify analysis.
(§2) Monomeric human CTLA-4 was flowed as analyte with up to 2 μM top concentration. Between cycles, the capture surface was regenerated with 75 mM phosphoric acid. Experiments were run on a BIACORE® T200 instrument at 37° C. Running buffers were HEPES buffered saline for pH 7.4 experiments and Bis-Tris buffered saline for lower pH experiments. […] Double referenced sensorgrams were fitted to a 1:1 Langmuir binding model with mass transport to determine equilibrium dissociation constants (KD), as well as association (kₐ) and dissociation (kd) rate constants where appropriate.

monomeric human CTLA-4 [6] = molecular target: T2, monomeric human CTLA-4; assay: SPR, captured Fab, pH 6.0
[7] = molecular target: T1, human CTLA-4 on 58 α-β-CTLA-4/CD3 ζ …; assay: flow cytometry (APC mean FI), Fab on 58αβ-CTLA4/mCD3ζ cells, pH 6.2
Procedure: (§3) Antibodies were titrated from 100 μg/mL at a 1:4 dilution across 12 points in pH-specific buffers and incubated for 30-60 minutes. Buffers contained HBSS, 2% FBS^HI, 0.02% sodium azide, 2 mM EDTA, and sodium phosphate buffer (pH 5.4). Sodium phosphate buffer was added until desired pH was reached (7.2, 6.7, 6.2). Approximately 3e5 cells/well were tested for each cell line. […] Detection was done with a monovalent anti-hKappa secondary nanobody conjugated to Alexa647 and used at a dilution of 1:2000. Cells were fixed with BD Fix Solution I for 30 minutes prior to resuspension in pH-specific buffers and reading on the cytometer (BD Fortessa).
(§4) The experimental protocol was the same as used to obtain the data of FIGS. 16A-C.

monomeric cyno CTLA-4 [8] = molecular target: T3, monomeric cyno CTLA-4 (cynomolgus macaque (Macaca fascicularis), UniProt G7PL88 36-161); assay: SPR, Fab, monomeric cyno CTLA-4 as analyte; KD (M, log axis 10^-9 to 10^-5) plotted against pH
T3 construct: also called CTLA-4 from the cynomolgus macaque Macaca fascicularis
T3 sequence: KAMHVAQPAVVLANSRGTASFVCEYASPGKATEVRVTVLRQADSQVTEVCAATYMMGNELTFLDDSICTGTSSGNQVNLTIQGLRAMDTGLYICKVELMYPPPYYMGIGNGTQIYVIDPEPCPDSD
Procedure: (§5) The pH dependence of binding of selected antibodies of the present invention to human CTLA-4 and cyno CTLA-4 was measured by surface plasmon resonance (SPR) spectroscopy, essentially as described in Example 3. Briefly, antibodies were studied as monovalent Fab fragments. Anti-human kappa polyclonal capture antibody (Southern Biotech, Ala. USA) was immobilized on a ethylenediamine-blocked CM4 sensor chip in a Biacore T200 surface plasmon resonance system. Fab fragments of selected antibodies of the present invention were then captured on one flow cell each. […] Running buffer was 20 mM BisTris, 150 mM NaCl, 0.05% Tween-20, 1 g/L BSA, at a pH ranging from 5.5 to 7.4 in 0.1-0.2 pH unit intervals (12 total). The surface was regenerated with 1/200 H₃PO₄ between cycles. […] Where required, the Rₘₐₓ was fixed by calculating expected binding based on capture level and apparent activity from other fits for the same Fab.

monomeric human CTLA-4 [9] = molecular target: T2, monomeric human CTLA-4; assay: SPR, captured Fab, pH 7.4
[10] = molecular target: T1, human CTLA-4 on 58 α-β-CTLA-4/CD3 ζ …; assay: flow cytometry (APC mean FI), Fab on 58αβ-CTLA4/mCD3ζ cells, pH 6.7
Procedure: as §3, §4

monomeric cyno CTLA-4 [11] = molecular target: T3, monomeric cyno CTLA-4; assay: SPR, Fab, monomeric cyno CTLA-4 as analyte; koff (s^-1, linear axis 0 to 0.3) plotted against pH
Procedure: as §5

monomeric human CTLA-4 [12] = molecular target: T2, monomeric human CTLA-4; assay: SPR, captured Fab, pH 6.0 and pH 7.4
monomeric human CTLA-4 [13] = molecular target: T2, monomeric human CTLA-4; assay: SPR, captured Fab, pH 7.4; remark: listed apart in the source
Procedure: as §1, §2

monomeric human CTLA-4 [14] = molecular target: T2, monomeric human CTLA-4; assay: SPR, captured Fab, pH 6.0; remark: listed apart in the source
Procedure: as §1, §2

monomeric human CTLA-4 [15] = molecular target: T2, monomeric human CTLA-4; assay: SPR, captured Fab, pH 6.0 vs 7.4; remark: listed apart in the source
Procedure: as §1, §2

monomeric human CTLA-4 [16] = molecular target: T2, monomeric human CTLA-4; assay: SPR, pH 6.0 and pH 7.5 (FIG. 6)
Procedure: as §1, §2

Binder	KD 7.4/6 (APBP) (monomeric human CTLA-4 [4])	Kd (monomeric human CTLA-4 [6])	kon (monomeric human CTLA-4 [6])	t1/2 (monomeric human CTLA-4 [6])	ka 6/7.4 (monomeric human CTLA-4 [4])	t1/2 6/7.4 (monomeric human CTLA-4 [4])	binding result (monomeric cyno CTLA-4 [8])	Kd (monomeric human CTLA-4 [9])	kon (monomeric human CTLA-4 [9])	t1/2 (monomeric human CTLA-4 [9])	other results
B1	–	–	–	–	–	–	–	–	–	–	EC50 (read off the curve) [1]: ~1 nM; EC50 (read off the curve) [2]: ~1 nM; EC50 (read off the curve) [3]: ~1 nM
B2	> 28	36 nM	1.9e+06 M⁻¹ s⁻¹	10 s	–	–	–	–	–	–	Kd (monomeric human CTLA-4 [5]): > 1000 nM
B3	17	2.5 nM	940000 M⁻¹ s⁻¹	289 s	2.1	8.8	binds	46 nM	460000 M⁻¹ s⁻¹	33 s	EC50 (read off the curve) [7]: ~0.1 µg/mL
B4	> 20	18 nM	1.2e+06 M⁻¹ s⁻¹	33 s	–	–	–	> 350 nM	–	–	EC50 (read off the curve) [10]: ~3 µg/mL; binding result (monomeric cyno CTLA-4 [11]): binds
B5	1.3	76 nM	1.1e+06 M⁻¹ s⁻¹	9 s	–	–	–	97 nM	–	–	fold decrease of affinity (increased KD) vs ipilimumab (monomeric human CTLA-4 [12]): ~4 fold; Kd (monomeric human CTLA-4 [13]): 200 nM; koff (monomeric human CTLA-4 [13]): 0.094 s⁻¹; kon (monomeric human CTLA-4 [13]): 480000 M⁻¹ s⁻¹; Kd (monomeric human CTLA-4 [14]): 180 nM; koff (monomeric human CTLA-4 [14]): 0.15 s⁻¹; kon (monomeric human CTLA-4 [14]): 840000 M⁻¹ s⁻¹; KD 7.4/6 (APBP) (monomeric human CTLA-4 [15]): 0.9
B6	13	2.7 nM	1.4e+06 M⁻¹ s⁻¹	182 s	1.8	7.6	binds	37 nM	780000 M⁻¹ s⁻¹	25 s	CAPBP (ratio of KD normalized to ipilimumab) (monomeric human CTLA-4 [16]): 27.2
